In the emibetuzumab library of Makowski et al. (2022):

B1: VH:VL chains; a variant is named by its letters at X, in order (parent)
chain 1: QVQLVQSGAEVKKPGASVKVSCKASGYTFTDYXMHWVRQAPGQGLEWMGXVNPNXXXTTYNQKFEGRVTMTTDTSTSTAYMELRSLRSDDTAVYYCARXNXLDXWGQGTTVTVSS
chain 2: DIQMTQSPSSLSASVGDRVTITCSVSSSVSSIYLHWYQQKPGKAPKLLIYSTSNLASGVPSRFSGSGSGTDFTLTISSLQPEDFATYYCQVYSGYPLTFGGGTKVEIK

Variants of: B1
Assay: yeast display scFab, FACS + sequencing
Outline: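 The non-specific binding call was based on sorted and sequenced yeast displaying a heavy-chain CDR mutant scFab library. Labelling used anti-Myc with biotinylated ovalbumin (260 μg/mL in PBSB, 3 h, room temperature) or soluble membrane proteins (130 μg/mL, 20 min on ice), and FACS collected the top 25% and bottom 10% of binders in two replicates. Positive meant present in ≥3 of 4 pooled positive samples and in no negatives, and negative meant the converse.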

Variant	non-specific binding call
FRTGDDSF	no binding
YRTKAAVD	binds
YTAGSDGA	no binding
YTAGSDGV	no binding
VRTEDASF	no binding
YRTGGSGD	binds
YRTGGSGA	binds
YRTRGSWD	binds
FRTRDSGY chain 1 V68I	binds
VTAGSDAV	no binding
YRTRSAWD	binds
YRTGAAGV	binds
DTAGDAAV	no binding
YRTRDSLD	no binding
FRTKAAVY	binds
YRTKASLD	binds
DTATADWA	no binding
YRTRSSWD	binds
FRTKSDLA	no binding
FRTRDSAA	binds
FRTRGAAA	binds
STAESDLD	no binding
VRTRGSGV	binds
YRTRDAGY	no binding

Variant	non-specific binding call
FRTKGAAD	binds
STAGSASD	no binding
YRTRGASD	binds
FRTGDAGA	no binding
YRTRDAWV	binds
YTARGVSF	binds
YRTADDWV	binds
FRTGDDGA	no binding
YRTKGSGV	binds
FRTRDSLD	binds
YRTRSSVS	binds
YRTRAAWD	binds
ATAGSAAV	no binding
YRTEGAVA	binds
YRRRGYGD	binds
YRTRDSGV	binds
STAESSSF	no binding
FTARSAGF	binds
VRTEDSLD	no binding
VRTEDSLV	no binding
ATAGSASD	no binding
FRTRGVGA	binds
VRTGDSAY	no binding
ATAGSDGV	no binding

Variant	non-specific binding call
YRTRDDVV	no binding
YRTRDDVY	no binding
FRTGDAWV	no binding
VRTEDSSV	no binding
VRTEDALV	no binding
VRTEDALD	no binding
FRTADVGV	binds
VRTEDDLV	no binding
VRTEDDAS	no binding
YRTRDVGF	binds
VRRTSAAS	binds
YRRRGVVV	binds
FRTRDFLV	binds
YRTRDSAS	no binding
YRTRGAGV	binds
YRTRGAGA	binds
YRTRGAGD	binds
YRRRGVSA	binds
FRTKGSGD	binds
VRTRASVD	binds
FRTGDAVS	no binding
FRTGDAVF	no binding
FRTGGAVA	binds
YTARDVGV	binds

Variant	non-specific binding call
FRTRDALD	binds
YRTRSSGA	binds
VRTEDFGV	no binding
YRTGDSGD	no binding
YRTGDSSA	no binding
VRTADVGV	binds
YRRRGYSS	binds
YRRRGYSD	binds
YTEAADGA	no binding
VTAGDSAD	no binding
STAESDVA	no binding
YRTRGYAV	binds
ARTRTAWY	binds
SRTRDAGD	no binding
DRTTNAGD	no binding
FRTGDSAS	no binding
YRTAGAGV	binds
YRTAGAGD	binds
FRTEGSGY	binds
VRTEDSWS	no binding
VRTEDSWA	no binding
VRTRGDGA	binds
VRTEDAWV	no binding
VRTEDAWA	no binding

Variant	non-specific binding call
FRTGDDLV	no binding
FRTGDDWV	no binding
FRTEGSAD	binds
YRTAGSGV	binds
YRTAGSGD	binds
FRTGSAWF	binds
DRTGDSSS	no binding
YRTGTAGF	binds
STAEDFVV	no binding
FRTGGSAD	binds
VRTRAAVD	binds
YRRRGVWA	binds
YTAGSDVA	no binding
VRTADDGA	no binding
FRTGDSLV	no binding
DTAGDAVV	no binding
STATADWV	no binding
YRRRSSLA	binds
FRTGDSWD	no binding
YRTGGSSV	binds
YRTKGAAD	binds
YRTRGSLY	binds
VRTRGYLA	binds
YRRRGYWA	binds

Variant	non-specific binding call
YRRRSAGA	binds
VTAGDDAV	no binding
YRRRTAAV	binds
FRRTDFVA chain 1 C22Y	binds
VRTRGAVD	binds
YRTGGSLD	binds
YRTGGAGD	no binding
FRTGDDAV	no binding
FRTGDDAA	no binding
DTAESDLD	no binding
VRTKDFSY	no binding
VRTRSSGV	binds
VRTRGALS	binds
VRTKADAV	no binding
YRTGASSD	binds
YRTRGALS	binds
YRTRGALA	binds
YRTAGSSD	binds
YRTGDSAA	binds
VTAGDDGS	no binding
VTAGDDGV	no binding
YRTRGAWF	binds
YRTRGAWA	binds
YRTRSAVV	binds

Variant	non-specific binding call
YRTRSAVY	binds
YRTRSSAV	binds
YRTRSAAA	binds
YRTRSAAV	binds
YRTADVGV	binds
YRTGAASD	binds
FTAGGAAD	binds
YRTRDDLY	no binding
SRTRGFGS	binds
YRRRGYVF	binds
YRRRGYVV	binds
YRRRGYVD	binds
YRRRGYVA	binds
VRRRSSLA	binds
DRTGDDVA	no binding
DRTGDDVY	no binding
ARRTDVAD	binds
VRRTDFVA	binds
VTATADWA	no binding
VRTRSFGA	binds
FRTKDDVY chain 1 E46K	binds
ATATADWA	no binding
FRTKGAWV	binds
YRTRGAAA	binds

Variant	non-specific binding call
YRTKGAVY	binds
YTAGSALV	no binding
VRTRGSSS	binds
STATADVA	no binding
VTAESSSF	no binding
VRTEDDWY	no binding
VRTEDDWS	no binding
VRTEDDWV	no binding
VRTEDDWF	no binding
DTAEDFGV	no binding
YRTGGAWD	binds
VTAEDFGV	no binding
VRTKAVAY	binds
FRTRGSSD	binds
YRRRGYAA	binds
YRTEDVGA	binds
STAESDGA	no binding
FRTRDSSS	binds
YRRRGVGV	binds
YRRRGVGA	binds
YRRRGVGD	binds
YRRRGVGS	binds
YRRRGVGY	binds
YRRRGYLV	binds

Variant	non-specific binding call
YRTGAALS	binds
SRTRGFVV	binds
FRTRDVGF	binds
VRTGAVGD	binds
YRRRSAVA	binds
YRRRSSSS	binds
YTAGSDWY	no binding
STAEDDWV	no binding
SRTGSDVD	no binding
DTAESSSF	no binding
FRTRDAGD	no binding
YRTRDSVD	binds
YRTRDSVA	no binding
YTATGFAV	binds
VRTEDDVF	no binding
VRTEDDVY	no binding
VRTEDDVA	no binding
VRTEDDVD	no binding
YRRRSSVD	binds
YRTRGAVD	binds
YRTRGSGF	binds
YRTRGSGY	binds
YTAAADLV	binds
VTAGDAGD	no binding

Variant	non-specific binding call
VRTRGSWD	binds
FRTRGAVV	binds
VRTEDSGD	no binding
VTAGDDVY	no binding
VTAGDDVA	no binding
YRTRSAGD	binds
YRTRSAGV	binds
YRTRSAGA	binds
VRTGGAAA	binds
YRTRDALV	no binding
VRTRSSLD	binds
YRTAGAAD	binds
YRTGDDVF	no binding
FRRTDFVA	binds
FRTRSSGV	binds
FRTRSSLA	binds
ARTKGSGY	binds
FRTRDAAA	binds
VRTGDSLD	no binding
VRTAASGD	binds
YTARGSAA	binds
VRTGDDGV	no binding
YRTGAAAD	binds
FRTGDSVD	no binding
